Assay results published in paper PMC9608704.
Several values for one entry are separate records, joined by “and”; a condition that tells them apart may be missing. Equal entries are not always repeated.

Molecular target: HLA-B*2704 heavy chain (human)
Assay: non-reducing SDS-PAGE with Western blot; cell surface proteins of C1R-B*2704 or C1R-B*2704 C67S cells biotinylated, extracted in the presence of iodoacetamide, precipitated by avidin-agarose beads, separated by non-reducing SDS-PAGE and blotted with the BH2 antibody; disulfide-linked oligomers judged by mobility

stoichiometry N: 2 and 4
Substance: HLA-B*2704 heavy chain (natural protein)
